Assay results published in PMC11078757, “Ligand efficacy modulates conformational dynamics of the µ-opioid receptor” (Nature, 2024).

Biological target: T1, Gi1 heterotrimer (human Gαi1, Gβ1, Gγ2) (human, UniProt P63096 1-354; P62873 1-340; P59768 1-71)
T1 construct: Gαi1, human; Gβ1, human; Gγ2, cloned together with human Gβ1 in pFastBac Dual; Treated with λ protein phosphatase; Purified with 10 µM GDP; made nucleotide-free in the assay with apyrase where said; Residues of the 3C site may be left on Gβ1 after cleavage; also called G protein; source: Hi5 cells, baculovirus co-infection, purified (Ni-NTA, MonoQ; also SEC for DEER samples); not shown: His6, …
Experiment: single-molecule FRET within the labelled receptor (TIRFM); 20 nM µOR–Cy3/Cy5 with 100 µM ligand incubated with 20 µM Gi1, then apyrase (nucleotide-free); complex immobilised via Flag tag, biotinylated M1 Fab and streptavidin; 25 °C, LMNG/CHS micelles, 100 ms frames
Conditions: both partners purified

B1: µOR∆7(R182C/R273C) labelled with iodoacetamide-conjugated Cy3 and Cy5 (receptor)
chain: GPGNISDSSDPLAPASSSPAPGSWLNLSHVDGNQSDPSGPNRTGLGGSHSLSPQTGSPSMVTAITIMALYSIVCVVGLFGNFLVMYVIVRYTKMKTATNIYIFNLALADALATSTLPFQSVNYLMGTWPFGNILCKIVISIDYYNMFTSIFTLCTMSVDRYIAVTHPVKALDFRTPCNAKIVNVCNWILSSAIGLPVMFMATTKYRQGSIDCTLTFSHPTWYWENLLKICVFIFAFIMPVLIITVCYGLMILRLKSVRMLSGSKEKDCNLRRITRMVLVVVAVFIVCWTPIHIYVIIKALITIPETTFQTVSWHFCIALGYTNSCLNPVLYAFLDENFKRAFREFLIPTSSTIEQQNSARIRQNTREHPSTANTVDRTNHQLENLEAETAPLP
modifications: iodoacetamide-conjugated Cy3 and Cy5 on the introduced cysteines 182 and 273
notes: µ-opioid receptor, Mus musculus, residues 6-398, minimal-cysteine construct µOR∆7 with two introduced labelling cysteines; Tethered to the cover slip via its Flag tag, biotinylated M1 Fab and streptavidin; also called µOR–Cy3/Cy5; source: Sf9 insect cells, baculovirus, purified (Ni-NTA, anti-Flag M1 resin, SEC) in LMNG/CHS micelles; not shown: Flag, N-terminal, kept
Q: Does B1 bind?
A: binds
